Blank lines part the entries; values can stand above or below the binder they belong to.
What was measured:
[1] = biological target: T1, human IGF2^1-67 (mature insulin-like growth factor 2) (human, UniProt P01344 25-91, biotinylated (site not stated) where immobilised on the chip (Tables 1-4)); assay: SPR
T1 construct: mature; also called mature IGF2; biotinylated IGF2
Excerpt: Surface plasmon resonance (SPR) binding analysis of recombinant M6P/IGF2R domain 11 mutants interaction with IGF2. Kon indicates association (on) rate; koff, dissociation (off) rate; RU, response units. Binding to IGF2 assessed with BIAcore T200 using purified biotinylated IGF2 and IGF1 on a streptavidin biosensor chip. Recombinant proteins were expressed either in E. coli and/or P. pastoris. All the mutants in the FG and CD loops are on the domain 11^AB5 background for the AB loop unless otherwise stated. All experiments were carried out at 25° C. in HBS-EP buffer (pH 7.4), were repeated 2-5 times on two independent BIAcore chips. nd=not determined. Data for KD expressed as mean of each experiment, and means of kon and koff are shown.
(§1) Final kinetic analysis of mutants by SPR was conducted using a Biacore T200 biosensor at 25° C. in either HBS-EP (10 mM HEPES pH 7.4, 150 mM NaCl, 3 mM EDTA, and 0.005% (v/v) surfactant P20) or MES-EP (20 mM MES pH 6.5, 150 mM NaCl, 3 mM EDTA, and 0.005% (v/v) surfactant P20) at a flow-rate of 40 μL min⁻¹. […] For the analysis of the Fc-domain 11^AB5 interaction, approximately 50 RU of a biotinylated IGF2:biotinylated ubiquitin mixture (1:8 proportion) was immobilized on the CM5-streptavidin chip. This interaction was also analysed by immobilizing the Fc-domain 11^AB5 and Fc-domain 11^AB5-RHH (or Fc-domain 11^I1572A as control) by Human Antibody Capture (monoclonal mouse anti-human IgG antibody immobilised on a CM5 chip by amine coupling, GE Healthcare) with and without human IgG1 Fc fragment (Bethyl Laboratories, UK) in the control flow cell. […] T200 BiaEvaluation software (GE Healthcare) was used to fit the resulting curves according to a 1:1 binding model.

[2] = biological target: T1, human IGF2^1-67 (mature insulin-like …); assay: SPR (Biacore T200, 25 °C, HBS-EP pH 7.4); ΔΔG° = RT ln(KD mutant / KD domain 11^AB3); box AB+FG
Protocol: (§2) Boxes show the change in the binding free energy contribution, ΔΔGº, for the indicated mutants. The loop/s that contains the mutation/s is indicated in each box. The ΔΔGº values were calculated as ΔΔGº=ΔGº domain 11^mutant−ΔGº domain 11^AB3=RTln(KD domain 11^mutant/KD domain 11^AB3). Additive and non-additive contributions of single point mutations are shown when calculated with a box solid line and dashed line, respectively.
as §1, with “model. Steady state affinities were determined using the kinetic data, taking the response average at 5 seconds before injection end and for 5 seconds average.” for “model.”

[3] = biological target: T1, human IGF2^1-67 (mature insulin-like …); assay: SPR steady state, biotin-IGF2 on chip
Protocol: as §1, with “model. Steady state affinities were determined using the kinetic data, taking the response average at 5 seconds before injection end and for 5 seconds average. Thermodynamic data was performed across the temperature range of 10° C. to 30° C., van't Hoff and Erying plots generated and ΔH, −TΔS and ΔG values determined as previously described.” for “model.”

[4] = biological target: T1, human IGF2^1-67 (mature insulin-like …); assay: SPR kinetic, biotin-IGF2 on chip
Protocol: as §1, with “model. Steady state affinities were determined using the kinetic data, taking the response average at 5 seconds before injection end and for 5 seconds average. Thermodynamic data was performed across the temperature range of 10° C. to 30° C., van't Hoff and Erying plots generated and ΔH, −TΔS and ΔG values determined as previously described.” for “model.”

[5] = biological target: T1, human IGF2^1-67 (mature insulin-like …); assay: SPR steady state, biotin-IGF2 on chip, pH 7.4
Summary of the method: (§3)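 Biacore SPR at 25 °C in HBS-EP pH 7.4 or MES-EP pH 6.5, flow 40 μL/min; ~50 RU biotin-IGF2:biotin-ubiquitin (1:8) on streptavidin chip, or Fc-domain 11 captured via anti-human IgG. Kinetics fitted to 1:1 model; steady-state affinity from response averaged 5 s before injection end.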

[6] = biological target: T1, human IGF2^1-67 (mature insulin-like …); assay: SPR kinetic, biotin-IGF2 on chip, pH 7.4
Summary of the method: as §3

[7] = biological target: T1, human IGF2^1-67 (mature insulin-like …); assay: SPR, biotin-IGF2 on chip, pH 7.4
[8] = biological target: T1, human IGF2^1-67 (mature insulin-like …); assay: SPR (Biacore T200, 25 °C, HBS-EP pH 7.4); ΔΔG° = RT ln(KD mutant / KD domain 11^AB3); box AB+CD
Protocol: as §2
Final kinetic analysis of mutants by SPR was conducted using a Biacore T200 biosensor at 25° C. in either HBS-EP (10 mM HEPES pH 7.4, 150 mM NaCl, 3 mM EDTA, and 0.005% (v/v) surfactant P20) or MES-EP (20 mM MES pH 6.5, 150 mM NaCl, 3 mM EDTA, and 0.005% (v/v) surfactant P20) at a flow-rate of 40 μL min⁻¹. […] This interaction was also analysed by immobilizing the Fc-domain 11^AB5 and Fc-domain 11^AB5-RHH (or Fc-domain 11^I1572A as control) by Human Antibody Capture (monoclonal mouse anti-human IgG antibody immobilised on a CM5 chip by amine coupling, GE Healthcare) with and without human IgG1 Fc fragment (Bethyl Laboratories, UK) in the control flow cell. […] Steady state affinities were determined using the kinetic data, taking the response average at 5 seconds before injection end and for 5 seconds average.

[9] = biological target: T1, human IGF2^1-67 (mature insulin-like …); assay: cell-based or functional assay
pro-IGF2^1-156 = biological target: T2, pro-IGF2^1-156 (UniProt P01344 25-180); assay: SPR kinetic, Fc fusion captured by anti-human IgG, pH 7.4
T2 construct: range 1-156
T2 sequence (P01344 25-180 limits assumed): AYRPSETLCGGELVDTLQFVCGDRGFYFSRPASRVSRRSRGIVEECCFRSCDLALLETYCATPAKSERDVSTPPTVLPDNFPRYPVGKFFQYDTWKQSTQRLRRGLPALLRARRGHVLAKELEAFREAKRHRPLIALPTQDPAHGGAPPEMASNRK
Protocol: (§4) SPR analysis of the interaction of recombinant IGF1 and IGF2 forms with Fc-domain 11 proteins immobilised by antibody capture (CM5 chip containing monoclonal mouse anti-human IgG antibody immobilised by amine coupling). Measurements were carried out at 25° C. in HBS-EP buffer (pH 7.4).
as §1, with “model. Steady state affinities were determined using the kinetic data, taking the response average at 5 seconds before injection end and for 5 seconds average. Thermodynamic data was performed across the temperature range of 10° C. to 30° C., van't Hoff and Erying plots generated and ΔH, −TΔS and ΔG values determined as previously described.” for “model.”

[10] = biological target: T1, human IGF2^1-67 (mature insulin-like …); assay: as above
Protocol: as §4
as §1, with “model. Steady state affinities were determined using the kinetic data, taking the response average at 5 seconds before injection end and for 5 seconds average. Thermodynamic data was performed across the temperature range of 10° C. to 30° C., van't Hoff and Erying plots generated and ΔH, −TΔS and ΔG values determined as previously described.” for “model.”

pro-IGF2^1-104 = pro-IGF2^1-104 (UniProt P01344 25-128); assay: as above
Sequence of pro-IGF2^1-104 (P01344 25-128 limits assumed): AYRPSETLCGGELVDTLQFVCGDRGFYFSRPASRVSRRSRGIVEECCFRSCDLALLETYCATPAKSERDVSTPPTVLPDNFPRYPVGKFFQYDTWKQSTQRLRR
Protocol: as §4
as §1, with “model. Steady state affinities were determined using the kinetic data, taking the response average at 5 seconds before injection end and for 5 seconds average. Thermodynamic data was performed across the temperature range of 10° C. to 30° C., van't Hoff and Erying plots generated and ΔH, −TΔS and ΔG values determined as previously described.” for “model.”

T1 sequence (P01344 25-91): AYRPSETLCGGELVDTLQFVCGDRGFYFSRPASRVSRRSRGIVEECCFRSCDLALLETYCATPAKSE

B1: domain 11^AB3 P1597H (receptor)
chain: MKSNEHDDCQVTNPSTGHLFDLSSLSGRAGFTAAYSKSGVVYMSICGENENCPPGVGACFGQTRISVGKANKRLRYVDQVLQLVYKDGSHCPSKSGLSYKSVISFVCRPEAGPTNRPMLISLDKQTCTLFFSWHTPLACEQATECSV
notes: See m5; also called AB3 + 62B (FG-P1597H)
fold change of KD against domain 11^AB3 [1]: 10 fold | fold reduction of koff against domain 11^AB3 [1]: 4 fold | ΔΔG [2]: -1.49 kcal/mol | Kd [3]: 1.76 nM | Kd [4]: 1.23 nM | koff [4]: 0.013 s⁻¹ | kon [4]: 1.06e+07 M⁻¹ s⁻¹ | Kd [5]: 1.76 nM | Kd [6]: 1.23 nM | koff [6]: 0.013 s⁻¹ | kon [6]: 1.06e+07 M⁻¹ s⁻¹

B3: domain 11^AB3 Q1569R (receptor)
chain: MKSNEHDDCQVTNPSTGHLFDLSSLSGRAGFTAAYSKSGVVYMSICGENENCPPGVGACFGRTRISVGKANKRLRYVDQVLQLVYKDGSPCPSKSGLSYKSVISFVCRPEAGPTNRPMLISLDKQTCTLFFSWHTPLACEQATECSV
notes: See m5; also called AB3 + 73E (CD-Q1569R)
ΔΔG [8]: -1.12 kcal/mol | Kd [3]: 3.15 nM | Kd [4]: 2.3 nM | koff [4]: 0.031 s⁻¹ | kon [4]: 1.36e+07 M⁻¹ s⁻¹ | Kd [5]: 3.15 nM | Kd [6]: 2.3 nM | koff [6]: 0.031 s⁻¹ | kon [6]: 1.36e+07 M⁻¹ s⁻¹

B4: domain 11^AB3 P1597H HI^23D (receptor)
chain: MKSNEHDDCQVTNPSTGHLFDLSSLSGRAGFTAAYSKSGVVYMSICGENENCPPGVGACFGQTRISVGKANKRLRYVDQVLQLVYKDGSHCPSKSGLSYKSVISFVCRPEAGPTNRPMLISLHFQSCTLFFSWHTPLACEQATECSV
notes: See m5; Only koff printed
koff [7]: 0.012 s⁻¹

Now from value to binder, other results behind:

koff [7]: 0.005 s⁻¹
B2: domain 11^AB5 Q1569R P1597H S1602H G1603K (receptor)
chain: MKSNEHDDCQVTNPSTGHLFDLSSLSGRAGFTAAYAKGWGVYMSICGENENCPPGVGACFGRTRISVGKANKRLRYVDQVLQLVYKDGSHCPSKHKLSYKSVISFVCRPEAGPTNRPMLISLDKQTCTLFFSWHTPLACEQATECSV
notes: See m5; Only koff printed; other cells np (no protein)

koff [7]: 0.012 s⁻¹
B5: domain 11^AB5 HI^23D (receptor)
chain: MKSNEHDDCQVTNPSTGHLFDLSSLSGRAGFTAAYAKGWGVYMSICGENENCPPGVGACFGQTRISVGKANKRLRYVDQVLQLVYKDGSPCPSKSGLSYKSVISFVCRPEAGPTNRPMLISLHFQSCTLFFSWHTPLACEQATECSV
notes: as for B2

koff [7]: 0.008 s⁻¹
B6: domain 11^AB5 Q1569R P1597K S1602H G1603K (receptor)
chain: MKSNEHDDCQVTNPSTGHLFDLSSLSGRAGFTAAYAKGWGVYMSICGENENCPPGVGACFGRTRISVGKANKRLRYVDQVLQLVYKDGSKCPSKHKLSYKSVISFVCRPEAGPTNRPMLISLDKQTCTLFFSWHTPLACEQATECSV
notes: as for B2

ΔΔG [8]: -1.13 kcal/mol | Kd [5]: 3.22 nM | Kd [6]: 2.24 nM | koff [6]: 0.0175 s⁻¹ | kon [6]: 8.04e+06 M⁻¹ s⁻¹
B7: domain 11^AB5 Q1569R (receptor)
chain: MKSNEHDDCQVTNPSTGHLFDLSSLSGRAGFTAAYAKGWGVYMSICGENENCPPGVGACFGRTRISVGKANKRLRYVDQVLQLVYKDGSPCPSKSGLSYKSVISFVCRPEAGPTNRPMLISLDKQTCTLFFSWHTPLACEQATECSV
notes: See m5

Kd (pro-IGF2^1-156): 0.21 nM | koff (pro-IGF2^1-156): 0.0009 s⁻¹ | kon (pro-IGF2^1-156): 4.19e+06 M⁻¹ s⁻¹ | Kd [10]: 3.89 nM | koff [10]: 0.025 s⁻¹ | kon [10]: 6.47e+06 M⁻¹ s⁻¹ | Kd (pro-IGF2^1-104): 0.54 nM | koff (pro-IGF2^1-104): 0.0069 s⁻¹ | kon (pro-IGF2^1-104): 1.29e+07 M⁻¹ s⁻¹
B8: human IgG1 Fc-domain 11^AB5 fusion protein (Fc fusion)
chain: NEHDDCQVTNPSTGHLFDLSSLSGRAGFTAAYAKGWGVYMSICGENENCPPGVGACFGQTRISVGKANKRLRYVDQVLQLVYKDGSPCPSKSGLSYKSVISFVCRPEAGPTNRPMLISLDKQTCTLFFSWHTPLACEQAT
notes: Made in HEK293T; also called Fc-domain II^AB5; pHLSec-AB5-hIgG1; not shown: human IgG1 Fc
IC50, cell viability of HT29/219 in serum free conditions [9]: 1700 nM | IC50, cell viability of Hep3B in serum free conditions [9]: 35500 nM | IC50, cell viability of Huh7 in serum free conditions [9]: 1200 nM

Reference: patent publication US20180237497A1 (CANCER RESEARCH TECHNOLOGY, published 2018)
